The values below come from PMC9503459, “Antifungal Activity, Structural Stability, and Immunomodulatory Effects on Human Immune Cells of Defensin from the Lentil Lens culinaris” (Membranes, 2022).

No end group written: not given here.

The subject of data set [1] is C. albicans. To be noted: at 20 μM; cited from earlier work. How it is done: Here, we investigated an ability of Lc-def to inhibit the growth of clinical isolates of Candida albicans, C. krusei, and C. glabrata. An antifungal activity against Candida species has been shown previously for some plant defensins. For example, the pea defensin Psd1 at the concentration of 20 μM and PvD1 from the common bean at 18.4 μ ...

For data set [2], the system named is proteolytic enzymes of Candida albicans. Kind of data set: Sensitivity to proteolytic enzymes of Candida albicans (cell lysate, SDS-PAGE). As to conditions: for stability to proteolysis by yeast: up to 72 h. The data set is classed as in vitro ADME. How it is done:
(§1) For study of Lc-def sensitivity to the clinical isolate of C. albicans, lysates of yeast cells in different concentration and pH were used basically as previously described for rhesus macaque θ-defensin 1 [22]. Cells were inoculated onto modified YPD medium and grown at 37 ℃ for 48 h before reaching the stationary phase of growth. Cells were harvested by centrifugation, washed two times in sterile phosphate buffered saline (PBS), pH 7.2, or sterile 40 mM sodium acetate, pH 4.0, and resuspended in the corresponding buffer to final concentrations of 1 × 10^9 cells/mL or 1 × 10^3 cells/mL. Two freeze-thaw cycles in liquid nitrogen were used for cell disruption, and supernatants were collected following centrifugation. Supernatants (12.5 μL) were mixed with water solutions (37.5 μL) of Lc-def, α-casein, Psd1, or LL-37 in concentration of 0.67 mg/mL and incubated at 37 ℃ for 72 or 24 h in the case of high or low cell concentration, respectively. To study the possible influence of Lc-def and Psd1 on the degradation process, supernatants (12.5 μL) were mixed with both α-casein or LL-37 in concentration of 1 mg/mL (25 μL) and Lc-def or Psd1 in concentration of 2 mg/mL (12.5 μL). As negative controls, α-casein and peptides were mixed with buffers as well as supernatants were mixed with water without the proteins. The samples were mixed with sample buffer without β-mercaptoethanol (BME), heated at 100 ℃ for 2 min, and analyzed by sodium dodecyl sulfate polyacrylamide gel electrophoresis (SDS-PAGE). Some independent experiments were performed in each case.

Data set [3] has the same test system. Nature of the data set: Influence of defensins on degradation of proteins by C. albicans lysate. The format is biochemical. As to conditions: C. albicans lysate 10^3 cells/mL, pH 7.2, up to 24 h, SDS-PAGE. The method, then:
as §1

Data set [4] in a line: CD spectroscopy, secondary structure at different pH and temperature. The data set is classed as physicochemical. As to conditions: far-UV CD, 30 µM, 10 mM phosphate buffer pH 7.4. How it is done: Circular dichroism spectra were recorded at different temperatures using a J-810 spectropolarimeter (Jasco, Hachioji, Tokyo, Japan) in a 0.1 cm path length quartz cell (Hellma GmbH and Co. KG, Mullheim, Germany) in the 190–250 nm range 0.2 using solutions of Lc-def in 10 mM phosphate buffer, pH 7.4, or 150 mM sodium chloride, pH 2.5, simulated gastric fluid, at a concentration of 30 µM. Lysolipids were added at final concentration of 1 mM.

Data set [5] concerns pepsin, trypsin, α-chymotrypsin. Kind of data set: Simulated gastrointestinal digestion in vitro. The format is in vitro ADME, porcine pepsin and trypsin, bovine α-chymotrypsin. To be noted: pepsin, 0.1 M HCl pH 2.0 (data not shown). The text has this: Digestive enzymes (porcine pepsin and trypsin, bovine α-chymotrypsin), model protein substrate bovine α-casein, and secondary anti-rabbit IgG polyclonal goat antibodies conjugated to HRP and 3,3′,5,5′-tetramethylbenzidine (TMB) substrates were purchased from Sigma-Aldrich (St. Louis, MO, USA). Synthetic lysophospholipids (lyso-palmitoyl phosphatidylcholine (LPPC), lyso-palmitoyl phosphatidylglycerol (LPPG)) were purchased from Avanti Polar Lipids (Alabaster, AL, USA).
Sensitivity of Lc-def to digestive enzymes was examined by simulation of its gastrointestinal digestion in vitro. Gastric digestion was performed for 2 h, using 50 ng of pepsin per 1 μg of preheated at 100 °C for 30 min and intact Lc-def in 0.1 M HCl, pH 2.0. For duodenal digestion, the pH of the mixture resulting from gastric digestion was adjusted to 8.0 by addition of ammonium bicarbonate. The obtained mixture was incubated for 24 h at 37 °C with 2.5 ng of trypsin and 10 ng of α-chymotrypsin per 1 μg of the defensin. The degree of proteolysis was monitored by SDS-PAGE and RP-HPLC. Gel analysis was performed using Gel Doc XR^+ imaging system (Bio-Rad, Hercules, CA, USA) and Image Lab Software v.6.1.0 (Bio-Rad, Hercules, CA, USA). Some independent experiments were performed in each case. The experiment with α-casein was carried out for comparison.

[6] abbreviates: C. albicans lysate 10^9 cells/mL, 40 mM sodium acetate pH 4.0, 37 °C, SDS-PAGE.

Consider “Psd1: pea Pisum sativum defensin (UNIPROT P81929), recombinant (KTCEHLADTYRGVCFTNASCDDHCKNKAHLISGTCHNWKCFCTQNC; ends and bridges not checked; cysteine pairing not given here; UniProt P81929 1-46, looked up) [reference compound]”, for which, in data set [1], the “growth inhibition of C. albicans” value was 100%. The “stability to proteolysis by yeast” value in data set [2] (setting [6]) is on record as “stable”. Further, the “stability to proteolysis by yeast” value in data set [2] (C. albicans lysate 10^9 cells/mL, PBS pH 7.2, 37 °C, SDS-PAGE, densitometry, immunoblotting) is “stable”. For the same molecule, in data set [3], the “influence on the rate of α-casein degradation” value was “but not Psd1 decreased the rate of α-casein degradation”. Also, in data set [4], the “Random, %” value was determined as 30.7%; the “α-Helix, %” value stood at 14.8%; the “β-Sheet, %” value came out at 31.8%; the “β-Turn, %” value amounted to 22.8%.

Regarding `CC[C@H](C)[C@H](NC(=O)[C@H](CCCCN)NC(=O)[C@H](CCC(=O)O)NC(=O)[C@H](CCCCN)NC(=O)[C@H](CO)NC(=O)[C@H](CCCCN)NC(=O)[C@H](CCCNC(=N)N)NC(=O)[C@H](Cc1ccccc1)NC(=O)[C@H](Cc1ccccc1)NC(=O)[C@H](CC(=O)O)NC(=O)CNC(=O)[C@H](CC(C)C)NC(=O)[C@@H](N)CC(C)C)C(=O)NCC(=O)N[C@@H](CCCCN)C(=O)N[C@@H](CCC(=O)O)C(=O)N[C@@H](Cc1ccccc1)C(=O)N[C@@H](CCCCN)C(=O)N[C@@H](CCCNC(=N)N)C(=O)N[C@H](C(=O)N[C@H](C(=O)N[C@@H](CCC(N)=O)C(=O)N[C@@H](CCCNC(=N)N)C(=O)N[C@H](C(=O)N[C@@H](CCCCN)C(=O)N[C@@H](CC(=O)O)C(=O)N[C@@H](Cc1ccccc1)C(=O)N[C@@H](CC(C)C)C(=O)N[C@@H](CCCNC(=N)N)C(=O)N[C@@H](CC(N)=O)C(=O)N[C@@H](CC(C)C)C(=O)N[C@H](C(=O)N1CCC[C@H]1C(=O)N[C@@H](CCCNC(=N)N)C(=O)N[C@H](C(=O)N[C@@H](CCC(=O)O)C(=O)N[C@@H](CO)C(=O)O)[C@@H](C)O)C(C)C)[C@@H](C)CC)C(C)C)[C@@H](C)CC` [LL-37, reference compound], the remaining at 24 h, 0.5 mg/mL in data set [2] (Candida albicans cell lysate supernatant (1 × 10^3 cells/mL), C. albicans lysate 10^3 cells/mL, pH 7.2, 37 °C, 24 h, densitometric gel analysis, read-out: intact peptide present in the hydrolysate) is roughly 30%.

B1: α-casein: model protein substrate bovine α-casein (protein, UniProt P02662 16-214, looked up)
Alpha-S1-casein: RPKHPIKHQGLPQEVLNENLLRFFVAPFPEVFGKEKVNELSKDIGSESTEDQAMEDIKQMEAESISSSEEIVPNSVEQKHIQKEDVPSERYLGYLEQLLRLKKYKVPQLEIVPNSAEERLHSMKEGIHAQQKEPMIGVNQELAYFYPELFRQFYQLDAYPSGAWYYVPLGTQYTDAPSFSDIPNPIGSENSEKTTMPLW
As for B1, in data set [5], the “time to almost complete degradation by pepsin” value is recorded as no more than 5 min. The “time after which the protein band was absent” value in data set [2] (C. albicans lysate 10^3 cells/mL, pH 7.2, 37 °C, SDS-PAGE) was no more than 8 h. Further, the “stability to proteolysis by yeast” value in data set [2] (setting [6]) was “slow”. The “time to complete degradation” value in data set [2] (C. albicans lysate 10^9 cells/mL, pH 7.2, 37 °C, SDS-PAGE) is on record as no more than 2 h.
